Results on four substances are retold here after publication PMC8938504.

Experiment [1] deals with MBP:RGA5_HMAm1m2 (rice (Oryza sativa)) (UniProt F7J0N2). The experiment can be described thus: SPR; […] (single-cycle kinetics, […]; 25 °C; 20 mM Tris pH 8, 150 mM NaCl, 0.5 mM DTT; […].
Experiment [2] concerns the target the engineered RGA5_HMAs. The description is as above.
In experiment [3] the target is MBP:RGA5_HMA (wild-type HMA domain of RGA5 fused to maltose-binding protein) (rice (Oryza sativa)) (UniProt F7J0N2). The experiment can be described thus: SPR; single-cycle kinetic titration, Biacore T200, 25 °C; […]; 20 mM Tris pH 8, 150 mM NaCl, 0.5 mM DTT, 0.05% P20; steady-state model. (Surface plasmon resonance follows binding to a sensor surface in real time, without labels.)

In the case of “6×His-tagged AVR1-CO39 (natural protein)”, the Kd (usually a measure of binding affinity in units of concentration) in experiment [1] was found to be 6.3 µM.

Take 6×His-tagged AVR-Pia (natural protein): in experiment [1], the equilibrium dissociation constant (Kd) was 5.9 µM. For “6×His-tagged AVR-PikD (from UniProt C4B8B8 22-113) (natural protein)”, the equilibrium dissociation constant (Kd) in experiment [2] fell in the range of 0.0005 to 0.0016 µM. The substance “AVR-PikD (dSP-AVR-PikD, His-tagged) (natural protein)” gave a Kd in experiment [3] of 8.32 µM.
